Measurements published in PMC6316659.

Tests used:
[1] = biological target: rD4BPL2 (recombinant Bryopsis plumosa lectin 2, tetrameric tandem repeat construct) (Bryopsis plumosa)
[2] = biological target: native BPL2 (Bryopsis plumosa mannose-binding lectin 2) (Bryopsis plumosa)

B1: bovine serum fetuin (natural protein)
chain: IPLDPVAGYKEPACDDPDTEQAALAAVDYINKHLPRGYKHTLNQIDSVKVWPRRPTGEVYDIEIDTLETTCHVLDPTPLANCSVRQQTQHAVEGDCDIHVLKQDGQFSVLFTKCDSSPDSAEDVRKLCPDCPLLAPLNDSRVVHAVEVALATFNAESNGSYLQLVEISRAQFVPLPVSVSVEFAVAATDCIAKEVVDPTKCNLLAEKQYGFCKGSVIQKALGGEDVRVTCTLFQTQPVIPQPQPDGAEAEAPSAVPDAAGPTPSAAGPPVASVVVGPSVVAVPLPLHRAHYDLRHTFSGVASVESSSGEAFHVGKTPIVGQPSIPGGPVRLCPGRIRYFKI
- minimum concentration of fetuin that inhibits the agglutination of a 4% horse erythrocyte suspension by 4 HU lectin [1]: 12.2 µg/mL
- minimum concentration of fetuin that inhibits the agglutination of a 4% horse erythrocyte suspension by 4 HU lectin [2]: 195 µg/mL
